Columns and labels:
Test in all cases: HPLC, Lineweaver-Burk
Type in all cases: biochemical, Albuca bracteata
HPLC, Lineweaver-Burk [1] = substrate: O=C1C[C@@H](c2ccc(O)cc2)Oc2cc(O)cc(O)c21; conditions: F3H activity, apparent Km, 2-oxoglutarate, Fe2+, ascorbate, pH 6.0, 20 °C
Excerpt: (§1) HPLC, Lineweaver-Burk on OcFLS1

HPLC, Lineweaver-Burk [2] = substrate: O=C1c2c(O)cc(O)cc2O[C@H](c2ccc(O)cc2)[C@H]1O; conditions: FLS activity, apparent Km, 2-oxoglutarate, Fe2+, ascorbate, pH 6.0, 20 °C
Excerpt: as §1

HPLC, Lineweaver-Burk [3] = substrate: O=C1C[C@@H](c2ccc(O)cc2)Oc2cc(O)cc(O)c21; conditions: F3H activity, apparent Km, 2-oxoglutarate, Fe2+, ascorbate, pH 6.0, 20 °C; remark: listed apart in the source
Excerpt: (§2) HPLC, Lineweaver-Burk on OcFLS2

HPLC, Lineweaver-Burk [4] = substrate: O=C1c2c(O)cc(O)cc2O[C@H](c2ccc(O)cc2)[C@H]1O; conditions: FLS activity, apparent Km, 2-oxoglutarate, Fe2+, ascorbate, pH 6.0, 20 °C; remark: listed apart in the source
Excerpt: as §2

B1: OcFLS1 (Albuca bracteata) (protein)
chain: MEVERVQAIASMTASLGTIPAEFIRSEHERPDITTYHGPVPDIPVVDLSATDRAGVTKAIAEAAQEWGIFQVVNHRVPIEAIKELQRVGKEFFELPQEEKEAYATVPDSGSFEGYGTRLQKDLEGKKAWVDYLFHNVWPQSKITYRFWPNNPPEYRKANEEYAKYLQGVVDEMLTSLSLGLGLESHVLKEAVGGDELEYLLKINYYPPCPRPDLALGVVAHTDMSAITILVPNEVPGLQVFKDDHWFDAKYIPNALIVHIGDQIEILSNGKYKSVLHRTTVNKEKARMSWPVFCSPPGEMIVGPLPQLVSDENSAKFKTKKYKDYSYCKINKLPQ
Km (HPLC, Lineweaver-Burk [1]): 37.57 ± 6.316 µM | Vmax (HPLC, Lineweaver-Burk [1]): 2.05 µM/min | Km (HPLC, Lineweaver-Burk [2]): 471.3 ± 179 µM | Vmax (HPLC, Lineweaver-Burk [2]): 12.9 µM/min

B2: OcFLS2 (Albuca bracteata) (protein)
chain: MEVERVQAIASMTASLGTIPAEFIRSEHERPDITTYHGPVPDIPVIDLSDTDRAAVAKAIADAAQEWGIFQVVNHGIPVEAIKELQRVGKGFFELPQEEKEAYATVPDSGSFEGYGTKLQKDLGGKKAWVDYLFHNVWPESKINYRFWPNNPPEYRKANEEYAKYLQEVVDEMLSSLSVGLGLEGHVLKEAVGGDELEYLLKINYYPPCPRPDLALGVVAHTDMSAITILVPNEVPGLQVFKDDHWFDAKYIPNALIVHIGDQIEILSNGKYKSVLHRTTVNKEKARMSWPVFCSPPGEMIVGPLPQLVSDENPAKFKTKKYKEYSYCKINKLPQ
Km (HPLC, Lineweaver-Burk [3]): 110.5 ± 20.86 µM | Vmax (HPLC, Lineweaver-Burk [3]): 5.82 µM/min | Km (HPLC, Lineweaver-Burk [4]): 525.7 ± 198.4 µM | Vmax (HPLC, Lineweaver-Burk [4]): 15.1 µM/min

Source: publication PMC6515686, “Characterization of two flavonol synthases with iron-independent flavanone 3-hydroxylase activity from Ornithogalum caudatum Jacq” (BMC Plant Biology, 2019)
